This is an account of results in paper PMC8192010.

As a reminder, the Kd is the concentration at which binding is half-saturated. Higher therefore signals weaker binding.

In the series the test system is CsrA-H6 (Escherichia coli (stated identical to S. Typhimurium CsrA)). Nature of the series: EMSA. In general terms: Mobility shift assays separate free from complexed probe on a gel.

Turning to hilE leader RNA (+153 to +280), the Kd was determined as 37 nM.
